{
  "source": "the RNAGym collection of RNA variant scans (doi:10.7554/elife.90254)",
  "parents": {"B1": {"name": "LINE1-mini (parent)", "chain": "GGCAGAGCUCAACACAGCGUGGCAAAGUGGCUGUGGCUAGACUGCC"}},
  "data": [
    {"variants_of": "B1", "experiment": "self-cleavage, relative activity (ratio to wild type); higher = more cleavage; in vitro, sequencing; the parent is a self-cleaving ribozyme", "values": [
      {"variant": "GGCGGAGCUCAACACAGCGUGGCAAAGUGGCUGUCGCUAGACUGCC", "note": "[A4G G35C]", "self-cleavage": 0.1},
      {"variant": "GGCAGAGCUCAACACAGCGUGGCAAAGUGUGUGUGGCUAGACUGCC", "note": "[G30U C31G]", "self-cleavage": 0.06},
      {"variant": "GGCACAGCUCAACACAUCGUGGCAAAGUGGCUGUGGCUAGACUGCC", "note": "[G5C G17U]", "self-cleavage": 0.04},
      {"variant": "GGCAGAGCUCAACACAGCGUGGCAAAGCGGCUGUGGCUAGAGUGCC", "note": "[U28C C42G]", "self-cleavage": 0.13},
      {"variant": "GGCAGAGCUCAACACCGCGUGGCAAAGUCGCUGUGGCUAGACUGCC", "note": "[A16C G29C]", "self-cleavage": 0.77},
      {"variant": "GGCAGAGCUCAACACAUCGUGGCAAAGUGGCUGUGGCAAGACUGCC", "note": "[G17U U38A]", "self-cleavage": 0.17},
      {"variant": "GGCAGAGGUCAACACAGCGUGGCAAAGUGGCUGUGGCUAGACUGUC", "note": "[C8G C45U]", "self-cleavage": 0.06},
      {"variant": "GUCAGAGCUCAACACAGCGUGGCAAAGUGGCUGUGGCUAGACUCCC", "note": "[G2U G44C]", "self-cleavage": 0.09},
      {"variant": "GGCAGAGCUCGACACAGCGUGGCAAAGUGACUGUGGCUAGACUGCC", "note": "[A11G G30A]", "self-cleavage": 0.04},
      {"variant": "GGCAGUGCUCAACACAGCGUGGCAAAGUGGCUGUGGCUUGACUGCC", "note": "[A6U A39U]", "self-cleavage": 0.35},
      {"variant": "GGCUGAGCUAAACACAGCGUGGCAAAGUGGCUGUGGCUAGACUGCC", "note": "[A4U C10A]", "self-cleavage": 0.04},
      {"variant": "GGCAGAGCUCAUCACAGCGGGGCAAAGUGGCUGUGGCUAGACUGCC", "note": "[A12U U20G]", "self-cleavage": 0.09},
      {"variant": "GGCAGAGCUCAACACAGCGUGGCAAAGUGGCUGUGGCUUGAUUGCC", "note": "[A39U C42U]", "self-cleavage": 0.23},
      {"variant": "GGCAGAGCUCAACACAGCGUGGAAAAGUGGCUUUGGCUAGACUGCC", "note": "[C23A G33U]", "self-cleavage": 0.2},
      {"variant": "GGCAGAGCUCAACACAGCGUGGCAAAGUGGCAGUGGCUAGACUGCC", "note": "[U32A]", "self-cleavage": 0.1},
      {"variant": "GGCAGAGCUCAACACAGCGGGACAAAGUGGCUGUGGCUAGACUGCC", "note": "[U20G G22A]", "self-cleavage": 0.55},
      {"variant": "GGCAGAUCUCAACACAGCGUUGCAAAGUGGCUGUGGCUAGACUGCC", "note": "[G7U G21U]", "self-cleavage": 0.1},
      {"variant": "GGCAUAGCUCAACACAGCAUGGCAAAGUGGCUGUGGCUAGACUGCC", "note": "[G5U G19A]", "self-cleavage": 0.33},
      {"variant": "GGCAGAGGUCAACACAGCGUGGCAAAGUGGCUAUGGCUAGACUGCC", "note": "[C8G G33A]", "self-cleavage": 0.12},
      {"variant": "GGCAGAGCUCUACACAGCGUGGCAAAGUGGCUGUGGCUAAACUGCC", "note": "[A11U G40A]", "self-cleavage": 0.03},
      {"variant": "GGCAGAACUCAAAACAGCGUGGCAAAGUGGCUGUGGCUAGACUGCC", "note": "[G7A C13A]", "self-cleavage": 0.45},
      {"variant": "AGCAGAGCUCAACACAGCGUGGCAAAGUGGCUGUGGCUAGACUGUC", "note": "[G1A C45U]", "self-cleavage": 1.19},
      {"variant": "GGCAGAGCUCAACACAGCGUGGCAAAGUGGCUGUUUCUAGACUGCC", "note": "[G35U G36U]", "self-cleavage": 0.1},
      {"variant": "GGCAGAGCUCAGCACAGCGUGGCAAAGUGGGUGUGGCUAGACUGCC", "note": "[A12G C31G]", "self-cleavage": 0.04},
      {"variant": "GGCAGAGCUCAACCCAGCGUGGCAAAGUGGCUGGGGCUAGACUGCC", "note": "[A14C U34G]", "self-cleavage": 0.26},
      {"variant": "GGUAGAGCUCAACACAGCGUGGCCAAGUGGCUGUGGCUAGACUGCC", "note": "[C3U A24C]", "self-cleavage": 0.37},
      {"variant": "GGCAGAGCUCAACACAGCUUGGCAAAGUGGCUGUUGCUAGACUGCC", "note": "[G19U G35U]", "self-cleavage": 0.16},
      {"variant": "GGCAGAGCGCAACACAGCGGGGCAAAGUGGCUGUGGCUAGACUGCC", "note": "[U9G U20G]", "self-cleavage": 0.06},
      {"variant": "GGCAGAGCUUAACACAGCGUGGCAAAGUGGCUCUGGCUAGACUGCC", "note": "[C10U G33C]", "self-cleavage": 0.04},
      {"variant": "GGCAGAGCUCAACACAGCGUGGCAAAGUGGAUGUGGCUAUACUGCC", "note": "[C31A G40U]", "self-cleavage": 0.05},
      {"variant": "GGCAGGGCUCAACACAGCGUGGCAAAGUGGCUGUGGCUAGAUUGCC", "note": "[A6G C42U]", "self-cleavage": 0.07},
      {"variant": "GGCAAAGCUCAACACAGCGUUGCAAAGUGGCUGUGGCUAGACUGCC", "note": "[G5A G21U]", "self-cleavage": 0.14},
      {"variant": "GGCAGAGCUCUACACUGCGUGGCAAAGUGGCUGUGGCUAGACUGCC", "note": "[A11U A16U]", "self-cleavage": 0.03},
      {"variant": "GGCCGAGCUCAACAUAGCGUGGCAAAGUGGCUGUGGCUAGACUGCC", "note": "[A4C C15U]", "self-cleavage": 0.13},
      {"variant": "GACAGAGCUCAACACAGCGUGGCAAAGUGGCCGUGGCUAGACUGCC", "note": "[G2A U32C]", "self-cleavage": 0.24},
      {"variant": "GGCAGCGCUGAACACAGCGUGGCAAAGUGGCUGUGGCUAGACUGCC", "note": "[A6C C10G]", "self-cleavage": 0.05},
      {"variant": "GGCAGAGCUCAACACAGCGUGGCAAAGUAGCUGUGGUUAGACUGCC", "note": "[G29A C37U]", "self-cleavage": 0.05},
      {"variant": "GGCAGAGCUCAACACAGCGUGGCACAGUGGCUGUGACUAGACUGCC", "note": "[A25C G36A]", "self-cleavage": 0.21},
      {"variant": "GGCAGAGCUCAACACAGCGUGGCAGAGUGGCUGUAGCUAGACUGCC", "note": "[A25G G35A]", "self-cleavage": 0.11},
      {"variant": "GGCAGGGCUCAACACAGCGUGGCAAAGUGGCUGUGGCUAGACUGCU", "note": "[A6G C46U]", "self-cleavage": 0.09},
      {"variant": "GGCAGAGCUCAACACAGCGUGACAAAGUGGCUGUGUCUAGACUGCC", "note": "[G22A G36U]", "self-cleavage": 0.15},
      {"variant": "GGUAGAGCUCAACACAGCGUGCCAAAGUGGCUGUGGCUAGACUGCC", "note": "[C3U G22C]", "self-cleavage": 0.48},
      {"variant": "GGCAGGGCUCAACACAGCGUGGCAAAGUGGCUGUGGCUAUACUGCC", "note": "[A6G G40U]", "self-cleavage": 0.1},
      {"variant": "GGCAGAGCCCAACACAGCGUGGAAAAGUGGCUGUGGCUAGACUGCC", "note": "[U9C C23A]", "self-cleavage": 0.02},
      {"variant": "GGCAGAGCUCAAGACAGGGUGGCAAAGUGGCUGUGGCUAGACUGCC", "note": "[C13G C18G]", "self-cleavage": 0.07},
      {"variant": "GUCAGAGCUCAACACAGCGUGGCAAAGUGGCUGUGGCUACACUGCC", "note": "[G2U G40C]", "self-cleavage": 0.03},
      {"variant": "GGCAGAGCUCAACACAGCGUGGCAAAGUGGCUCUGGCUAGACAGCC", "note": "[G33C U43A]", "self-cleavage": 0.12},
      {"variant": "UGCAGAGCUCAACACAGGGUGGCAAAGUGGCUGUGGCUAGACUGCC", "note": "[G1U C18G]", "self-cleavage": 0.06},
      {"variant": "GGCAGAGCUCAACACAGCGGGGCAAAGUGGCUGUGGCUACACUGCC", "note": "[U20G G40C]", "self-cleavage": 0.04},
      {"variant": "GACAGAGCUCAACACAGCGUGGCAAGGUGGCUGUGGCUAGACUGCC", "note": "[G2A A26G]", "self-cleavage": 0.6},
      {"variant": "GGCAAAGCUCAACACAGCGUGGCAGAGUGGCUGUGGCUAGACUGCC", "note": "[G5A A25G]", "self-cleavage": 0.14},
      {"variant": "GGCAGACCUCAACGCAGCGUGGCAAAGUGGCUGUGGCUAGACUGCC", "note": "[G7C A14G]", "self-cleavage": 0.08},
      {"variant": "GGCAGAGCUCAACACAGCGUCGCAAACUGGCUGUGGCUAGACUGCC", "note": "[G21C G27C]", "self-cleavage": 0.52},
      {"variant": "GGCCGAGCUCAACACAGCGUGGCAAAGUGGCUGUGGCUAGACUGCA", "note": "[A4C C46A]", "self-cleavage": 0.14},
      {"variant": "GGCAGAGCUCAACACAGCGUGACAAAGUGGCUGUGGGUAGACUGCC", "note": "[G22A C37G]", "self-cleavage": 0.03},
      {"variant": "GGCAGAGCUCAACACAGCGUGGCAGCGUGGCUGUGGCUAGACUGCC", "note": "[A25G A26C]", "self-cleavage": 0.49}
    ]}
  ]
}
